Reference: publication PMC3235118, “Juvenile Hormone (JH) Esterase of the Mosquito Culex quinquefasciatus Is Not a Target of the JH Analog Insecticide Methoprene” (PLoS ONE, 2011)

What was measured:
CqJHE [1] = target: T1, CqJHE (Culex quinquefasciatus, UniProt R4HZP1); assay: competition in JH III partition assay; assay type: biochemical
T1 construct: gene jhe; full-length cDNA (ORF 1746 nt) from 4th instar larvae, predicted 19-residue signal peptide removed on secretion, mature 563 residues, 63,430 Da; recombinant baculovirus AcCqJHE in High Five cells, secreted
T1 sequence (R4HZP1 20-582): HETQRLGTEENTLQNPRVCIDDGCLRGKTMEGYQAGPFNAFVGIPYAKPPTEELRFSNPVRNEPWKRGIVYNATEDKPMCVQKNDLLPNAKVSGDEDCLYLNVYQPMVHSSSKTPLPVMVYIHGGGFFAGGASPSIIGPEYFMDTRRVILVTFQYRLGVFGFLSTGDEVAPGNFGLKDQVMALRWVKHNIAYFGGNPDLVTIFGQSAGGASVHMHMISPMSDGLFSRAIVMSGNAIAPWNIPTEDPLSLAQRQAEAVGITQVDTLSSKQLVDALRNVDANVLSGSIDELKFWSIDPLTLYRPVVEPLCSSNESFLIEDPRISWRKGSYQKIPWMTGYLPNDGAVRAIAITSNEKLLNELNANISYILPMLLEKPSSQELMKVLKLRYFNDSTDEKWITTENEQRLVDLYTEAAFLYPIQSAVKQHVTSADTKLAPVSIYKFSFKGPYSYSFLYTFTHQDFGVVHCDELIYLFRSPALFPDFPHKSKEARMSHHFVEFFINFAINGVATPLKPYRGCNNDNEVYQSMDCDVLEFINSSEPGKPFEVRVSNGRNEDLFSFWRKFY

CqJHE [2] = target: T1, CqJHE; assay: JH III partition assay (radiolabelled JH III), […] min preincubation; assay type: biochemical
[3] = substrate: CC(=O)Oc1ccc([N+](=O)[O-])cc1; assay: spectrophotometric, OD405; assay type: biochemical, Culex quinquefasciatus; settings: 50 mM sodium phosphate pH 7.4, 30°C
Description: spectrophotometric, OD405 on CqJHE

[4] = substrate: COC(=O)/C=C(\C)CC/C=C(\C)CC[C@H]1OC1(C)C; assay: JH III partition assay (radiolabelled JH III); assay type: biochemical, Culex quinquefasciatus; settings: 50 mM sodium phosphate pH 7.4, 30°C
Description: JH III partition assay (radiolabelled JH III) on CqJHE

[5] = substrate: CC(=O)Oc1cccc2ccccc12; assay: spectrophotometric, OD450; assay type: biochemical, Culex quinquefasciatus; settings: glycine-NaOH pH 9.0, 30°C
Description: spectrophotometric, OD450 on CqJHE

C#CCOC(=O)/C=C(C)/C=C/CC(C)CCCC(C)C (stereo not drawn) [kinoprene]
inhibition at 5 µM (CqJHE [1]): 50%

CCCCCCCCSCC(=O)C(F)(F)F [OTFP, 3-octylthio-1,1,1-trifluoropropan-2-one]
IC50 (CqJHE [2]): 230 ± 50 pM

CCOC(=O)/C=C(C)/C=C/C[C@@H](C)CCCC(C)C [hydroprene]
inhibition at 5 µM (CqJHE [1]): 40%

B1: CqJHE (Culex quinquefasciatus) (protein)
chain: HETQRLGTEENTLQNPRVCIDDGCLRGKTMEGYQAGPFNAFVGIPYAKPPTEELRFSNPVRNEPWKRGIVYNATEDKPMCVQKNDLLPNAKVSGDEDCLYLNVYQPMVHSSSKTPLPVMVYIHGGGFFAGGASPSIIGPEYFMDTRRVILVTFQYRLGVFGFLSTGDEVAPGNFGLKDQVMALRWVKHNIAYFGGNPDLVTIFGQSAGGASVHMHMISPMSDGLFSRAIVMSGNAIAPWNIPTEDPLSLAQRQAEAVGITQVDTLSSKQLVDALRNVDANVLSGSIDELKFWSIDPLTLYRPVVEPLCSSNESFLIEDPRISWRKGSYQKIPWMTGYLPNDGAVRAIAITSNEKLLNELNANISYILPMLLEKPSSQELMKVLKLRYFNDSTDEKWITTENEQRLVDLYTEAAFLYPIQSAVKQHVTSADTKLAPVSIYKFSFKGPYSYSFLYTFTHQDFGVVHCDELIYLFRSPALFPDFPHKSKEARMSHHFVEFFINFAINGVATPLKPYRGCNNDNEVYQSMDCDVLEFINSSEPGKPFEVRVSNGRNEDLFSFWRKFY
notes: full-length cDNA (ORF 1746 nt) from 4th instar larvae, predicted 19-residue signal peptide removed on secretion, mature 563 residues, 63,430 Da; recombinant baculovirus AcCqJHE in High Five cells, secreted
Km [3]: 340 ± 17 µM | Vmax [3]: 120 µmol/min/mg | kcat [3]: 130 s⁻¹ | kcat/Km [3]: 380000 M⁻¹ s⁻¹ | Km [4]: 0.13 ± 0.02 µM | Vmax [4]: 1.2 µmol/min/mg | kcat [4]: 1.3 s⁻¹ | kcat/Km [4]: 1e+07 M⁻¹ s⁻¹ | Km [5]: 2960 ± 420 µM | Vmax [5]: 20 µmol/min/mg | kcat [5]: 21 s⁻¹ | kcat/Km [5]: 7100 M⁻¹ s⁻¹
